The test system of data set [1] is HeLa Kyoto. In words: solubility in G1/S (NP-40 vs SDS abundance) (log2 ratio); higher = more soluble. Particulars: cell cycle stage: G1/S.
Data set [2] deals with HeLa Kyoto. In words: melting temperature (median over replicates), in situ; higher = more thermally stable.
Data set [3] deals with HeLa Kyoto. The experiment in a line: thermal stability score vs G1/S (z-score of summed log2 fold changes over temperatures); higher = more thermally stable than in G1/S.
For data set [4], the system named is HeLa Kyoto. The experiment in a line: solubility change mitosis vs G1/S (difference of NP-40 vs SDS log2 ratios) (log2 ratio difference); higher = more soluble in mitosis.
Setting [5] is: cell cycle stage: early G1 (4.5 h after nocodazole release).
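Wherever melting temperature (median over replicates), in situ is given: HeLa Kyoto cells synchronized by double thymidine or nocodazole block, proteins quantified by TMT10plex mass spectrometry, three independent biological replicates.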
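Wherever solubility change mitosis vs G1/S (difference of NP-40 vs SDS log2 ratios) is given: synchronized HeLa Kyoto cells (double thymidine block for G1/S, nocodazole release for mitosis), protein amounts in NP-40 versus SDS lysates quantified by mass spectrometry, three biological replicates.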
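Wherever solubility in G1/S (NP-40 vs SDS abundance) is given: HeLa Kyoto cells arrested at G1/S by double thymidine block, proteins quantified by TMT10plex mass spectrometry in mild NP-40 versus SDS extracts, three biological replicates.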
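Wherever thermal stability score vs G1/S (z-score of summed log2 fold changes over temperatures) is given: synchronized HeLa Kyoto cells, proteins quantified by TMT10plex mass spectrometry, three biological replicates, mitosis taken 0.5 h after nocodazole release, G1/S directly after double thymidine block.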

“MDSALSDPHNGSAEAGGPTNSTTRPPSTPEGIALAYGSLLLMALLPIFFGALRSVRCARGKNASDMPETITSRDAARFPIIASCTLLGLYLFFKIFSQEYINLLLSMYFFVLGILALSHTISPFMNKFFPASFPNRQYQLLFTQGSGENKEEIINYEFDTKDLVCLGLSSIVGVWYLLRKHWIANNLFGLAFSLNGVELLHLNNVSTGCILLGGLFIYDVFWVFGTNVMVTVAKSFEAPIKLVFPQDLLEKGLEANNFAMLGLGDVVIPGIFIALLLRFDISLKKNTHTYFYTSFAAYIFGLGLTIFIMHIFKHAQPALLYLVPACIGFPVLVALAKGEVTEMFSYEESNPKDPAAVTESKEGTEASASKGLEKKEK [HM13]”: in the data set on HeLa Kyoto [1], the “solubility in G1/S (log2)” value was -0.106. The melting temperature with HeLa Kyoto [2] (cell cycle stage: G1/S) came to 60.5 °C; in the data set with HeLa Kyoto [2] (cell cycle stage: mitosis), 59.8 °C. The results for the thermal stability score in the data set with HeLa Kyoto [3] (setting [5]) and in the data set with HeLa Kyoto [3] (cell cycle stage: mitosis) were -1.07 and -1.15, respectively. Also, the “solubility change mitosis (log2)” value in the data set with HeLa Kyoto [4] was -0.167.
Take “MDSGSSSSDSAPDCWDQVDMESPGSAPSGDGVSSAVAEAQREPLSSAFSRKLNVNAKPFVPNVHAAEFVPSFLRGPTQPPTLPAGSGSNDETCTGAGYPQGKRMGRGAPVEPSREEPLVSLEGSNSAVTMELSEPVVENGEVEMALEESWEHSKEVSEAEPGGGSSGDSGPPEESGQEMMEEKEEIRKSKSVIVPSGAPKKEHVNVVFIGHVDAGKSTIGGQIMFLTGMVDKRTLEKYEREAKEKNRETWYLSWALDTNQEERDKGKTVEVGRAYFETERKHFTILDAPGHKSFVPNMIGGASQADLAVLVISARKGEFETGFEKGGQTREHAMLAKTAGVKHLIVLINKMDDPTVNWSIERYEECKEKLVPFLKKVGFSPKKDIHFMPCSGLTGANIKEQSDFCPWYTGLPFIPYLDNLPNFNRSIDGPIRLPIVDKYKDMGTVVLGKLESGSIFKGQQLVMMPNKHNVEVLGILSDDTETDFVAPGENLKIRLKGIEEEEILPGFILCDPSNLCHSGRTFDVQIVIIEHKSIICPGYNAVLHIHTCIEEVEITALISLVDKKSGEKSKTRPRFVKQDQVCIARLRTAGTICLETFKDFPQMGRFTLRDEGKTIAIGKVLKLVPEKD [GSPT2]”: the “solubility in G1/S (log2)” value in the data set with HeLa Kyoto [1] stood at 0.153. The sequence further returned a melting temperature in the data set with HeLa Kyoto [2] (cell cycle stage: mitosis) of 53.5 °C. Moreover, the thermal stability score is -1.05 in the data set with HeLa Kyoto [3] (setting [5]) and -1.43 with HeLa Kyoto [3] (cell cycle stage: mitosis). In the data set with HeLa Kyoto [4], the “solubility change mitosis (log2)” value is -0.124.
Turning to “MDSKESLTPGREENPSSVLAQERGDVMDFYKTLRGGATVKVSASSPSLAVASQSDSKQRRLLVDFPKGSVSNAQQPDLSKAVSLSMGLYMGETETKVMGNDLGFPQQGQISLSSGETDLKLLEESIANLNRSTSVPENPKSSASTAVSAAPTEKEFPKTHSDVSSEQQHLKGQTGTNGGNVKLYTTDQSTFDILQDLEFSSGSPGKETNESPWRSDLLIDENCLLSPLAGEDDSFLLEGNSNEDCKPLILPDTKPKIKDNGDLVLSSPSNVTLPQVKTEKEDFIELCTPGVIKQEKLGTVYCQASFPGANIIGNKMSAISVHGVSTSGGQMYHYDMNTASLSQQQDQKPIFNVIPPIPVGSENWNRCQGSGDDNLTSLGTLNFPGRTVFSNGYSSPSMRPDVSSPPSSSSTATTGPPPKLCLVCSDEASGCHYGVLTCGSCKVFFKRAVEGQHNYLCAGRNDCIIDKIRRKNCPACRYRKCLQAGMNLEARKTKKKIKGIQQATTGVSQETSENPGNKTIVPATLPQLTPTLVSLLEVIEPEVLYAGYDSSVPDSTWRIMTTLNMLGGRQVIAAVKWAKAIPGFRNLHLDDQMTLLQYSWMFLMAFALGWRSYRQSSANLLCFAPDLIINEQRMTLPCMYDQCKHMLYVSSELHRLQVSYEEYLCMKTLLLLSSVPKDGLKSQELFDEIRMTYIKELGKAIVKREGNSSQNWQRFYQLTKLLDSMHEVVENLLNYCFQTFLDKTMSIEFPEMLAEIITNQIPKYSNGNIKKLLFHQK [NR3C1]”, the “solubility in G1/S (log2)” value in the data set with HeLa Kyoto [1] was determined as 0.0188. The melting temperature in the data set on HeLa Kyoto [2] (cell cycle stage: G1/S) was found to be 48.2 °C; in the data set with HeLa Kyoto [2] (cell cycle stage: mitosis) it was 49.3 °C. For the same sequence, the thermal stability score turned out to be 0.508 in the data set on HeLa Kyoto [3] (setting [5]) and 1.98 in the data set on HeLa Kyoto [3] (cell cycle stage: mitosis). Moreover, in the data set on HeLa Kyoto [4], the “solubility change mitosis (log2)” value is -0.168.
Regarding “MDSRLQEIRERQKLRRQLLAQQLGAESADSIGAVLNSKDEQREIAETRETCRASYDTSAPNAKRKYLDEGETDEDKMEEYKDELEMQQDEENLPYEEEIYKDSSTFLKGTQSLNPHNDYCQHFVDTGHRPQNFIRDVGLADRFEEYPKLRELIRLKDELIAKSNTPPMYLQADIEAFDIRELTPKFDVILLEPPLEEYYRETGITANEKCWTWDDIMKLEIDEIAAPRSFIFLWCGSGEGLDLGRVCLRKWGYRRCEDICWIKTNKNNPGKTKTLDPKAVFQRTKEHCLMGIKGTVKRSTDGDFIHANVDIDLIITEEPEIGNIEKPVEIFHIIEHFCLGRRRLHLFGRDSTIRPGWLTVGPTLTNSNYNAETYASYFSAPNSYLTGCTEEIERLRPKSPPPKSKSDRGGGAPRGGGRGGTSAGRGRERNRSNFRGERGGFRGGRGGAHRGGFPPR [METTL14]”, the “solubility in G1/S (log2)” value with HeLa Kyoto [1] is 0.0131. The melting temperature in the data set on HeLa Kyoto [2] (cell cycle stage: G1/S) was determined as 52.3 °C; with HeLa Kyoto [2] (cell cycle stage: mitosis), 53.4 °C. The results for the thermal stability score in the data set on HeLa Kyoto [3] (setting [5]) and with HeLa Kyoto [3] (cell cycle stage: mitosis) were -0.705 and 0.141, respectively. Further, the “solubility change mitosis (log2)” value with HeLa Kyoto [4] is -0.118.
In the case of “MDTGVIEGGLNVTLTIRLLMHGKEVGSIIGKKGESVKKMREESGARINISEGNCPERIITLAGPTNAIFKAFAMIIDKLEEDISSSMTNSTAASRPPVTLRLVVPASQCGSLIGKGGCKIKEIRESTGAQVQVAGDMLPNSTERAITIAGIPQSIIECVKQICVVMLETLSQSPPKGVTIPYRPKPSSSPVIFAGGQDRYSTGSDSASFPHTTPSMCLNPDLEGPPLEAYTIQGQYAIPQPDLTKLHQLAMQQSHFPMTHGNTGFSGIESSSPEVKGYWGLDASAQTTSHELTIPNDLIGCIIGRQGAKINEIRQMSGAQIKIANPVEGSTDRQVTITGSAASISLAQYLINVRLSSETGGMGSS [PCBP2]”, the “solubility in G1/S (log2)” value in the data set with HeLa Kyoto [1] turned out to be 0.222. Further, the values for the melting temperature in the data set with HeLa Kyoto [2] (cell cycle stage: G1/S) and in the data set on HeLa Kyoto [2] (cell cycle stage: mitosis) were 47.9 °C and 49.5 °C, respectively. The thermal stability score stood at 1.75 with HeLa Kyoto [3] (setting [5]) and 7.6 in the data set with HeLa Kyoto [3] (cell cycle stage: mitosis). Also, the “solubility change mitosis (log2)” value in the data set with HeLa Kyoto [4] is -0.136.

The record behind these values is the supplement of paper PMC5998384.
